From publication PMC11733250, “Interplay of p23 with FKBP51 and their chaperone complex in regulating tau aggregation” (Nature Communications, 2025)

B1: truncated p23 (1-119) (domain or fragment, human, UniProt Q15185 1-119, looked up)
chain: MQPASAKWYDRRDYVFIEFCVEDSKDVNVNFEKSKLTFSCLGGSDNFKHLNEIDLFHCIDPNDSKHKRTDRSILCCLRKGESGQSWPRLTKERAKLNWLSVDFNNWKDWEDDSDEDMSN
notes: p23, human, residues 1-119; the terminal 41 residues are deleted; Made by site-directed mutagenesis; also called truncated (1–119) mutant p23; C-terminal deletion mutant of p23; source: grown in LB or M9 medium, IPTG-induced; purified (His-trap, thrombin cut of the His-tag, size exclusion chromatography)
B2: p23 wild-type (human co-chaperone p23, 160 amino acids) (natural protein, UniProt Q15185 1-160, looked up)
chain: MQPASAKWYDRRDYVFIEFCVEDSKDVNVNFEKSKLTFSCLGGSDNFKHLNEIDLFHCIDPNDSKHKRTDRSILCCLRKGESGQSWPRLTKERAKLNWLSVDFNNWKDWEDDSDEDMSNFDRFSEMMNNMGGDEDVDLPEVDGADDDSQDSDDEKMPDLE
notes: p23, human, 160 amino acids: folded domain (residues 1-110) and disordered C-terminal tail (residues 111-160); Used unlabeled, 15N-labeled or deuterated/15N-labeled; also called p23 WT; full-length p23; source: grown in LB or M9 medium, IPTG-induced; purified (His-trap, thrombin cut of the His-tag, size exclusion chromatography)
B3: FKBP51 (natural protein, UniProt Q13451 1-457, looked up)
chain: MTTDEGAKNNEESPTATVAEQGEDITSKKDRGVLKIVKRVGNGEETPMIGDKVYVHYKGKLSNGKKFDSSHDRNEPFVFSLGKGQVIKAWDIGVATMKKGEICHLLCKPEYAYGSAGSLPKIPSNATLFFEIELLDFKGEDLFEDGGIIRRTKRKGEGYSNPNEGATVEIHLEGRCGGRMFDCRDVAFTVGEGEDHDIPIGIDKALEKMQREEQCILYLGPRYGFGEAGKPKFGIEPNAELIYEVTLKSFEKAKESWEMDTKEKLEQAAIVKEKGTVYFKGGKYMQAVIQYGKIVSWLEMEYGLSEKESKASESFLLAAFLNLAMCYLKLREYTKAVECCDKALGLDSANEKGLYRRGEAQLLMNEFESAKGDFEKVLEVNPQNKAARLQISMCQKKAKEHNERDRRIYANMFKKFAEQDAKEEANKAMGKKTSEGVTNEKGTDSQAMEEEKPEGHV
notes: FKBP51, 51 kDa, with the FK1, FK2 and TPR domains; all three domains and residues 426-457 are spoken of, which fits the whole 457-residue protein; Used unlabeled or with 13C-methyl (Leu, Val) labels; also called free FKBP51; LV-labeled FKBP51; source: grown in LB or M9 medium, IPTG-induced; purified (His-trap, HRV 3C cut of the His-tag, size exclusion chromatography)

Tests used:
Settings in all cases: both partners purified
FKBP51 = target: B3; experiment: NMR titration; 1H-15N TROSY HSQC of deuterated 15N-labeled p23 (WT 40 µM, 1-119 25 µM, R88A R93A 40 µM); unlabeled FKBP51 added at equimolar to three-fold or five-fold molar excess; 25 mM HEPES, 10 mM KCl, 5 mM MgCl2, 1 mM DTT, pH 7.2, 303 K
[1] = target: T1, 441-residue human 2N4R tau (human, UniProt P10636-8 1-441); experiment: NMR titration; 1H-15N HSQC of 15N-labeled tau (20 or 30 µM); unlabeled p23 or p23 (1-119) added up to ten-fold molar excess; 50 mM NaP, 10 mM NaCl, 1 mM DTT, pH 6.8, 278 K
T1 construct: tau, human, 2N4R isoform, printed length 441 residues; Used unlabeled or 15N-labeled; source: grown in LB or M9 medium, IPTG-induced; purified (boiling, ammonium sulfate, Mono S ion exchange, reverse phase HPLC), lyophilized

[2] = target: T1, 441-residue human 2N4R tau; experiment: cross-linking; p23:FKBP51:tau 1:1:1 (25 µM each), 1 mM DSS, 30 min at 25 °C; SDS-PAGE band above 220 kDa cut out, trypsin digest, mass spectrometry (pLink)

T1 sequence (P10636 other isoform, or with tags, fused parts or gaps): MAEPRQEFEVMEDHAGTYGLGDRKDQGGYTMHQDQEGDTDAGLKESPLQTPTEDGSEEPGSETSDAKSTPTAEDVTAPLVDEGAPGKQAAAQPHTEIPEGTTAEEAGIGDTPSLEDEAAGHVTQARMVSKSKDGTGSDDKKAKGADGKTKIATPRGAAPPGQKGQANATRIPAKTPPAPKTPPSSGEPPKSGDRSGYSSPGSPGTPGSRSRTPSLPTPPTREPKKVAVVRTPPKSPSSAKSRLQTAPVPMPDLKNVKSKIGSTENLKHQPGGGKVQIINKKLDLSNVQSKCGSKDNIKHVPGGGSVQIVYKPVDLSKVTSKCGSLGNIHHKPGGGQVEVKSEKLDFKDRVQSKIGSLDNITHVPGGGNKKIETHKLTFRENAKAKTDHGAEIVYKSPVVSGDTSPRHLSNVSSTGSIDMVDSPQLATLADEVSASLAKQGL

B1
binding result (FKBP51): binds

B2
binding result [1]: binds

B3
binding result [2]: binds
